Test results from PMC3712487.

Biological target: p27^Kip1–His6 (UniProt P46527)
Chain of UniProt P46527 (P46527 whole entry): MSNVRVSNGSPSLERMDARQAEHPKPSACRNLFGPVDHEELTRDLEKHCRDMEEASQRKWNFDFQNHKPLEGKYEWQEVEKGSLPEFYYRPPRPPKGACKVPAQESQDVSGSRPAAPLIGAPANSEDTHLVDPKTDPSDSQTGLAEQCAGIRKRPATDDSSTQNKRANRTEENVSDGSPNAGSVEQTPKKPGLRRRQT

β1–His6 (full-length β1, wild type) (from UniProt P28072 1-239) (enzyme)
in vitro degradation of purified p27^Kip1–His6 (1 μg) by purified β1–His6 (2 μg) at 37°C, immunoblot, time course up to 90 min: 40%
